B1: human THAP1 (THanatos (death)-Associated Protein-1), full length (other)
chain: MVQSCSAYGCKNRYDKDKPVSFHKFPLTRPSLCKEWEAAVRRKNFKPTKYSSICSEHFTPDCFKRECNNKLLKENAVPTIFLCTEPHDKKEDLLEPQEQLPPPPLPPPVSQVDAAIGLLMPPLQTPVNLSVFCDHNYTVEDTMHQRKRIHQLEQQVEKLRKKLKTAQQRCRRQERQLEKLKEVVHFQKEKDDVSERGYVILPNDYFEIVEVPA
notes: It was tested as a Gal4-BD (pGBKT7) or Gal4-AD (pGADT7); also called hTHAP1; FLJ10477

In test [1] the target is T1, Par4 deletion mutant lacking the leucine zipper/death domain (amino acids 1-276) (human, UniProt Q96IZ0 1-274).
T1 construct: Tested as a Gal4-BD or Gal4-AD fusion in yeast two-hybrid; also called Par4A; Par4Δ
T1 sequence: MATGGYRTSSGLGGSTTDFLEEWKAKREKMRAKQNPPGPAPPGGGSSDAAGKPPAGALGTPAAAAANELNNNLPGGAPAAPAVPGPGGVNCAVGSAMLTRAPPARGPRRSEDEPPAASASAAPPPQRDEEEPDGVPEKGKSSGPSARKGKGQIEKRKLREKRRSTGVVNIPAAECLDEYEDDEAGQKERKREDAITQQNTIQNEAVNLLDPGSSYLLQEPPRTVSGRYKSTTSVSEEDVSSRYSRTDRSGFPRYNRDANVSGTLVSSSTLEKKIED
Kind of test: yeast two-hybrid (His/Ade selection). From the text: We then examined whether the leucine zipper/death domain at the C-terminus of Par4, previously shown to be involved in Par4 binding to WT-1 and aPKC, was required for the interaction between THAP1 and Par4. Two Par4 mutants were constructed for that purpose, Par4A and Par4DD. Par4A lacks the leucine zipper/death domain while Par4DD contains this domain. pGBKT7-Par4A(amino acids 1-276) and pGADT7-Par4A. were constructed by sub-cloning a EcoRI-BglII fragment from pGADT7-Par4 into the EcoRI and BamHI sites of pGBKT7 and pGADT7. Par4DD (amino acids 250-342) was amplified by PCR, using pGBKT7-Par4 as template, with primers Par4.4 (5′-[…]-3′) (SEQ ID NO: 193) and Par4.5, and cloned into the EcoRI and BamHI sites of pGBKT7 and pGADT7 to obtain pGBKT7-Par4DD and pGADT7-Par4DD. Two-hybrid interaction between THAP1 and Par4 mutants was tested by cotransformation of AH109 with pGBKT7-THAP1 and pGADT7-Par4A or pGADT7-Par4DD and selection of transformants by His and Ade double auxotrophy according to manufacturer's instructions ([…] two-hybrid system 3, Clontech). […] Similar results were obtained when two-hybrid experiments were performed in the opposite orientation using Par4 or Par4 mutants (Par4A and Par4DD) as baits instead of THAP1 (FIG. 3A).

For test [2], the target named is T2, Glutathione S-transferase (GST) control protein (pGEX-2T) (UniProt P08515 1-218 = GST).
T2 construct: Negative control immobilized on glutathione sepharose; also called GST beads; immobilized GST alone
In words: GST pull-down, immobilized GST control, in vitro translated 35S-labelled THAP1. As to the method: To confirm the interaction observed in yeast, we performed in vitro GST pull down assays. Par4DD, expressed as a GST-tagged fusion protein and immobilized on glutathione sepharose, was incubated with radiolabeled in vitro translated THAP1. To generate the GST-Par4DD expression vector, Par4DD (amino acids 250-342) was amplified by PCR with primers Par4.10 (5′-[…]-3′) (SEQ ID NO: 194) and Par4.5, and cloned in frame downstream of the Glutathion S-Transferase ORF, into the BamHI site of the pGEX-2T prokaryotic expression vector (Amersham Pharmacia Biotech, Saclay, France). GST-Par4DD(amino acids 250-342) fusion protein encoded by plasmid pGEX-2T-Par4DD and control GST protein encoded by plasmid pGEX-2T, were then expressed in E. Coli DH5α and purified by affinity chromatography with glutathione sepharose according to supplier's instructions (Amersham Pharmacia Biotech). The yield of proteins used in GST pull-down assays was determined by SDS-Polyarylamide Gel Electrophoresis (PAGE) and Coomassie blue staining analysis. In vitro-translated THAP1 was generated with the TNT-coupled reticulocyte lysate system (Promega, Madison, Wis., USA) using pGBKT7-THAP1 vector as template. […]

The test “human THAP1 (THanatos …)” addresses B1. Kind of test: yeast two-hybrid screen of the pGAD424-HEVEC cDNA library with pGBT9-SLC bait (His selection). From the text:
In an effort to define the function of novel HEVEC proteins and the cellular pathways involved, we used different baits to screen a two-hybrid cDNA library generated from microvascular human HEV endothelial cells (HEVEC). HEVEC were purified from human tonsils by immunomagnetic selection with monoclonal antibody MECA-79 as previously described (Girard and Springer (1995) Immunity 2:113-123). The SMART PCR cDNA library Construction Kit (Clontech, Palo Alto, Calif., USA) was first used to generate full-length cDNAs from 1 μg HEVEC total RNA. Oligo-dT-primed HEVEC cDNA were then digested with SfiI and directionally cloned into pGAD424-Sfi, a two-hybrid vector generated by inserting a SfiI linker (5′-[…]-3′) (SEQ ID NO: 181) between EcoRI and BamHI cloning sites of pGAD424 (Clontech). The resulting pGAD424-HEVEC cDNA two-hybrid library (mean insert size>1 kb, ˜3×10⁶ independant clones) was amplified in E. coli. […]

In test [3] the target is T3, THAP1-N2 deletion mutant (amino acids 1-166) (human, UniProt Q9NVV9 1-166).
T3 construct: Tested as a Gal4-BD or Gal4-AD fusion, as in vitro translated 35S-labelled protein and as an EGFP fusion
T3 sequence: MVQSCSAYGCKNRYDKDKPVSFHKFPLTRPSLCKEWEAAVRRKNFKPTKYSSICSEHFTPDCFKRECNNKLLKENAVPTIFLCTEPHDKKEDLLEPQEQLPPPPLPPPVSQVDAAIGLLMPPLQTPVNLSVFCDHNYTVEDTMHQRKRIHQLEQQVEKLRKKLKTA
Kind of test: yeast two-hybrid, pGADT7-THAP1 mutant with pGBKT7-SLC/CCL21. The method, then:
(§1) Two-hybrid interaction between THAP1 mutants and chemokine SLC/CCL21 was tested by cotransformation of AH109 with pGADT7-THAP1-C1, -C2, -C3, -N1, -N2 or -N3 and pGBKT7-SLC/CCL21 and selection of transformants by His and Ade double auxotrophy according to manufacturer's instructions ([…] two-hybrid system 3, Clontech). pGBKT7-SLC/CCL21 vector was generated by subcloning the BamHI SLC/CCL21 fragment from pGBT9-SLC (see example 1) into the unique BamHI cloning site of vector pGBKT7 (Clontech).

Test [4] addresses T4, THAP1-N3 deletion mutant (amino acids 1-192) (human, UniProt Q9NVV9 1-192).
T4 construct: Tested as a Gal4-BD or Gal4-AD fusion, as in vitro translated 35S-labelled protein and as an EGFP fusion
T4 sequence: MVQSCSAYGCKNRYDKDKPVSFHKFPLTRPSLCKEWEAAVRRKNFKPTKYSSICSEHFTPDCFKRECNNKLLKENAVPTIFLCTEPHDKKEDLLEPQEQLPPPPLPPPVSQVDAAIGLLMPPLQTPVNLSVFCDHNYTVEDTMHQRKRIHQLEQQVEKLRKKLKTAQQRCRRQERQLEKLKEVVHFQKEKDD
The description is as above. The method, then:
as §1

Test [5] concerns the target T5, THAP1-C1 deletion mutant (amino acids 90-213) (human, UniProt Q9NVV9 90-213).
T5 construct: Tested as a Gal4-BD or Gal4-AD fusion, as in vitro translated 35S-labelled protein and as an EGFP fusion; also called THAP1ΔTHAP; THAP1?THAP
T5 sequence: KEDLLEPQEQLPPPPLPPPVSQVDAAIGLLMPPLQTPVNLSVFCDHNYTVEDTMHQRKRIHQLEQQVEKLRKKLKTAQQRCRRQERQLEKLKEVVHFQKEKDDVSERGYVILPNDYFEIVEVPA
Described as above. The method, then: as §1

Test [6] addresses T2, Glutathione S-transferase (GST) control …. Kind of test: GST pull-down, immobilized GST control, in vitro translated 35S-labelled SLC/CCL21.

T2 sequence (P08515 whole entry): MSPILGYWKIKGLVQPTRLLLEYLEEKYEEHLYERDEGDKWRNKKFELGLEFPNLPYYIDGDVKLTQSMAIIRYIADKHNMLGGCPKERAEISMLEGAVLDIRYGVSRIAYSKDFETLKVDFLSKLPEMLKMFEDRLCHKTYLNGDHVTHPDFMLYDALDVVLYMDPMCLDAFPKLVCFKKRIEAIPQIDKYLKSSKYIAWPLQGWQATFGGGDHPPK

B1: the binding result in test [1] and in test [2] was “no binding” each time.

B2: human chemokine SLC/CCL21, mature form (amino acids 24-134) (ligand)
chain: SDGGAQDCCLKYSQRKIPAKVVRSYRKQEPSLGCSIPAILFLPRKRSQAELCADPKELWVQQLMQHLDKTPSPQKPAQGCRKDRGASKTGKKGKGSKGCKRTERSQTPKGP
notes: also called SLC/6Ckine; SLC/CCL21 wild type
As to B2, the binding result with human THAP1 (THanatos …) was “binds”; in test [3], “no binding”; in test [4] it was “no binding”; in test [5] it was “binds”; in test [6], “no binding”.

(Values after patent US20040224408A1, “THAP proteins as nuclear receptors for chemokines and roles in transcriptional regulation, cell proliferation and cell differentiation” (published 2004).)
